According to PMC3469819:

Legend:
[1] = biological target: full-length human CDK9 (residues 1–372) (human) (UniProt P50750)
[2] = biological target: truncated CDK9 construct CDK9_(330) (residues 1–330) (human) (UniProt P50750)
[3] = biological target: full-length human CDK9 (residues 1–372) (human) (UniProt P50750); remark: listed apart in the source

Sequence of full-length human CDK9 (residues 1–372) (human) (P50750 whole entry, the tested form may be a part): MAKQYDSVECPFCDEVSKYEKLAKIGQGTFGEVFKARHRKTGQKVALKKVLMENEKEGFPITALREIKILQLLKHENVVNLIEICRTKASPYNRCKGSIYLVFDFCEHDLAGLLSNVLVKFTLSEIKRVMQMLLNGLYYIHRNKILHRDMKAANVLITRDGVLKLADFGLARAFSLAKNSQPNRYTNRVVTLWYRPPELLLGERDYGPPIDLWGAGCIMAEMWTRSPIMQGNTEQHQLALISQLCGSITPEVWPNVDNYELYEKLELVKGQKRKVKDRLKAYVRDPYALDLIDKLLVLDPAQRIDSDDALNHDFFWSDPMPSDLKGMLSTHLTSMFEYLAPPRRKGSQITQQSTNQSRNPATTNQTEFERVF
Sequence of truncated CDK9 construct CDK9_(330) (residues 1–330) (human) (P50750 1-330): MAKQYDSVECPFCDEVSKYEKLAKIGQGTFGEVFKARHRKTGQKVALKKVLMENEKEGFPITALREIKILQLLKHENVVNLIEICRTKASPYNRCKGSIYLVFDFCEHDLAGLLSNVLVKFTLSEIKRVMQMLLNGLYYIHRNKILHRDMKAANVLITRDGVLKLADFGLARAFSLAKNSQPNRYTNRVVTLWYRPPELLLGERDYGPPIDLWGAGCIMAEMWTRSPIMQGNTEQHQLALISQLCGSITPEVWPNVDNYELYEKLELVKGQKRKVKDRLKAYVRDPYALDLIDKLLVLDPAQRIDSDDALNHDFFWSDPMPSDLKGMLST

In the case of “GST-tagged version of the human Pol II CTD (from UniProt P24928 1587-1970) (domain or fragment)”, the K (M,app) for GST-CTD of the kinase activity of CDK9FL/cyclin T (32P incorporation into GST-CTD, fixed ATP) [1] is reported as 24.3 µM, the K (M,app) for GST-CTD of the kinase activity of CDK9 (330)/cyclin T (32P incorporation into GST-CTD, fixed ATP) [2] is reported as 21.3 µM and the K (M, CTD): overall Michaelis constant for GST-CTD of CDK9FL/cyclin T, from initial rates with both GST-CTD and ATP varied [3] is reported as 115 µM.
